Experimental data from paper PMC11480449, “Adaptive laboratory evolution recruits the promiscuity of succinate semialdehyde dehydrogenase to repair different metabolic deficiencies” (Nature Communications, 2024).
Numbering of substitutions follows the chain as printed. Numbers in names are those of the source. One block for each molecule: values may come before it.

How the values were obtained:
[1] = biological target: T1, ThrA (bifunctional aspartokinase (AK)/homoserine dehydrogenase (HDH) 1) (Escherichia coli, UniProt P00561); assay: homoserine dehydrogenase, NADPH consumption at […] nm; format: biochemical; details: 0.2 mM NADPH, 1 mM substrate, 100 mM KCl, pH 8.0, 37 °C
T1 sequence (P00561 1-820): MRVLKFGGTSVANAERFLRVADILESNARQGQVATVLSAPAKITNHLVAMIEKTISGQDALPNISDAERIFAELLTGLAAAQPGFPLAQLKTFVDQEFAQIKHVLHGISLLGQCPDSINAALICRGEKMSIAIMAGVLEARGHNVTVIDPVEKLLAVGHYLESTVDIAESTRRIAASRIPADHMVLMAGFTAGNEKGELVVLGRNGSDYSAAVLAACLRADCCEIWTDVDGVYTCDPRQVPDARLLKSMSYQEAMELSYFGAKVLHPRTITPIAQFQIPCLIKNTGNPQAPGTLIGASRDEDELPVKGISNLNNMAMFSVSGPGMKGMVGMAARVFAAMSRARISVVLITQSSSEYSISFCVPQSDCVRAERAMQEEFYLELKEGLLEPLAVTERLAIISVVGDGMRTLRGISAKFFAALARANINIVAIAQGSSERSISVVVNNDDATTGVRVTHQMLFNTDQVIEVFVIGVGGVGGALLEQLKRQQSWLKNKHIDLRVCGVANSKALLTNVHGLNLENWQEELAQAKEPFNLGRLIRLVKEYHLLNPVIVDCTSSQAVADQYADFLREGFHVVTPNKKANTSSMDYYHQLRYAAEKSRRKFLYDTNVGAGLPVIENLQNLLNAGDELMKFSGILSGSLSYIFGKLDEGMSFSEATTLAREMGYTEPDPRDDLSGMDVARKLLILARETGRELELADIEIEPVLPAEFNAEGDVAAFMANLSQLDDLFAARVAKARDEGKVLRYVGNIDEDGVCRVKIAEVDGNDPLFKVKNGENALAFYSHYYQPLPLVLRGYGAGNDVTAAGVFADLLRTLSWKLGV

[2] = biological target: T2, Sad (NAD(P)+-dependent succinate semialdehyde dehydrogenase, SSADH) (Escherichia coli, UniProt P76149, Q262R); assay: NADH formation at […] nm, substrate-inhibition fit; format: biochemical; details: 1 mM NAD+, 75 mM HEPES pH 8.0, 37 °C
T2 construct: dimeric on size exclusion
T2 sequence (P76149 whole entry Q262R): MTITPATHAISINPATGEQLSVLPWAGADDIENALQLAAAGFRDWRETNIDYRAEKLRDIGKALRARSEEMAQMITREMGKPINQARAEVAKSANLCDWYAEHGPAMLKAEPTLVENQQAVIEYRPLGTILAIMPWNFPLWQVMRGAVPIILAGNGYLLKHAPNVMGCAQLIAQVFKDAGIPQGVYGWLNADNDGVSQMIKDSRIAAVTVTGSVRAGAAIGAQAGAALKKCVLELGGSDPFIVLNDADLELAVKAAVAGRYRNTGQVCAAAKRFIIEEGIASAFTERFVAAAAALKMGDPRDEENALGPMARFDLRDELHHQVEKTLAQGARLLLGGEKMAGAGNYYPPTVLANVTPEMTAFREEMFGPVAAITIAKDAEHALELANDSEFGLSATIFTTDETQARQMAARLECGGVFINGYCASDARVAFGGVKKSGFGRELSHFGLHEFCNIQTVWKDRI

[3] = biological target: T1, ThrA (bifunctional aspartokinase (AK)/homoserine dehydrogenase (HDH) 1); assay: aspartate kinase, PK/LDH-coupled, NADH at […] nm; format: biochemical; details: 4 mM ATP, 5 mM L-aspartate, 5 mM MgCl2, pH 8.0, 37 °C
[4] = biological target: T3, Sad (NAD(P)+-dependent succinate semialdehyde dehydrogenase, SSADH) (Escherichia coli, UniProt P76149); assay: NADH formation at […] nm, substrate-inhibition fit; format: biochemical; details: 1 mM NAD+, 75 mM HEPES pH 8.0, 37 °C
T3 construct: dimeric on size exclusion

[5] = biological target: T3, Sad (NAD(P)+-dependent succinate semialdehyde dehydrogenase, SSADH); assay: X-ray crystallography; format: binding
[6] = biological target: T2, Sad (NAD(P)+-dependent succinate semialdehyde dehydrogenase, SSADH); assay: X-ray crystallography; format: binding; details: 5 mM NAD+, 1 mM TCEP
purified protein [7] = substrate: O=CCCC(=O)O; assay: purified protein; format: biochemical, Escherichia coli; details: 75 mM HEPES pH 8.0, 37 °C
purified protein [8] = substrate: O=C[C@H](O)[C@H](O)COP(=O)(O)O; assay: purified protein; format: biochemical, Escherichia coli; details: 1 mM NAD+, 75 mM HEPES pH 8.0, 37 °C
purified protein [9] = substrate: O=C[C@H](O)COP(=O)(O)O; assay: purified protein; format: biochemical, Escherichia coli; details: 1 mM NAD+, 75 mM HEPES pH 8.0, 37 °C
[10] = biological target: the molecule itself; assay: SEC; HiLoad 16/600 Superdex 200 pg, 20 mM HEPES-KOH, 50 mM KCl, pH 7.5; preparative step after affinity purification, before crystallisation

Molecule: N[C@@H](CC=O)C(=O)O [L-aspartic 4-semialdehyde]
homoserine dehydrogenase, NADPH consumption at 340 nm [1]: Homoserine dehydrogenase activities of ThrA variants were determined

App. Ki [2]: 1400 ± 300 µM
Molecule: O=C[C@H](O)COP(=O)(O)O [glyceraldehyde 3-phosphate]

Molecule: N[C@@H](CC(=O)O)C(=O)O [L-aspartate]
aspartate kinase, PK/LDH-coupled, NADH at 340 nm [3]: Aspartate kinase activities of ThrA variants were determined

App. Ki [4]: 300 ± 100 µM | X-ray crystallography ([5]; covalent, bound to C268, NAD+ present, crystal soaked with 5 mM SSA): the latter is covalently bound to C268 | App. Ki [2]: 500 ± 100 µM
Molecule: O=CCCC(=O)O [succinate semialdehyde]

App. Ki [2]: 7400 ± 3300 µM
Molecule: O=C[C@H](O)[C@H](O)COP(=O)(O)O [erythrose 4-phosphate]

Molecule: NC(=O)c1ccc[n+]([C@@H]2O[C@H](COP(=O)(O)OP(=O)(O)OC[C@H]3O[C@@H](n4cnc5c(N)ncnc54)[C@H](O)[C@@H]3O)[C@@H](O)[C@H]2O)c1 [NAD^+]
X-ray crystallography ([5]; 5 mM NAD+): crystal structures of both Sad WT and Q262R variants with bound NAD^+ | X-ray crystallography [6]: crystal structures of both Sad WT and Q262R variants with bound NAD^+

B1: GabD (NADP+-dependent SSADH) (Escherichia coli K-12) (protein)
chain: MKLNDSNLFRQQALINGEWLDANNGEAIDVTNPANGDKLGSVPKMGADETRAAIDAANRALPAWRALTAKERATILRNWFNLMMEHQDDLARLMTLEQGKPLAEAKGEISYAASFIEWFAEEGKRIYGDTIPGHQADKRLIVIKQPIGVTAAITPWNFPAAMITRKAGPALAAGCTMVLKPASQTPFSALALAELAIRAGVPAGVFNVVTGSAGAVGNELTSNPLVRKLSFTGSTEIGRQLMEQCAKDIKKVSLELGGNAPFIVFDDADLDKAVEGALASKFRNAGQTCVCANRLYVQDGVYDRFAEKLQQAVSKLHIGDGLDNGVTIGPLIDEKAVAKVEEHIADALEKGARVVCGGKAHERGGNFFQPTILVDVPANAKVSKEETFGPLAPLFRFKDEADVIAQANDTEFGLAAYFYARDLSRVFRVGEALEYGIVGINTGIISNEVAPFGGIKASGLGREGSKYGIEDYLEIKYMCIGL
Km (purified protein [7]; 1 mM NADP+): 13 ± 1 µM | kcat (purified protein [7]; 1 mM NADP+): 132 ± 2 s⁻¹ | kcat/Km (purified protein [7]; 1 mM NADP+): 1e+07 M⁻¹ s⁻¹

B2: Sad (NAD(P)+-dependent succinate semialdehyde dehydrogenase, SSADH) (Escherichia coli K-12) (protein)
chain: MTITPATHAISINPATGEQLSVLPWAGADDIENALQLAAAGFRDWRETNIDYRAEKLRDIGKALRARSEEMAQMITREMGKPINQARAEVAKSANLCDWYAEHGPAMLKAEPTLVENQQAVIEYRPLGTILAIMPWNFPLWQVMRGAVPIILAGNGYLLKHAPNVMGCAQLIAQVFKDAGIPQGVYGWLNADNDGVSQMIKDSRIAAVTVTGSVRAGAAIGAQAGAALKKCVLELGGSDPFIVLNDADLELAVKAAVAGRYQNTGQVCAAAKRFIIEEGIASAFTERFVAAAAALKMGDPRDEENALGPMARFDLRDELHHQVEKTLAQGARLLLGGEKMAGAGNYYPPTVLANVTPEMTAFREEMFGPVAAITIAKDAEHALELANDSEFGLSATIFTTDETQARQMAARLECGGVFINGYCASDARVAFGGVKKSGFGRELSHFGLHEFCNIQTVWKDRI
notes: dimeric on size exclusion
Km (purified protein [7]; 1 mM NAD+): 11 ± 1 µM | kcat (purified protein [7]; 1 mM NAD+): 85 ± 3 s⁻¹ | kcat/Km (purified protein [7]; 1 mM NAD+): 7.4e+06 M⁻¹ s⁻¹ | Km (purified protein [8]): 2,102 ± 328 μM | kcat (purified protein [8]): 1.1 ± 0.1 s⁻¹ | kcat/Km (purified protein [8]): 530 M⁻¹ s⁻¹ | Km (purified protein [9]): 1,106 ± 92 μM | kcat (purified protein [9]): 3.1 ± 0.2 s⁻¹ | kcat/Km (purified protein [9]): 2800 M⁻¹ s⁻¹

B3: Sad (NAD(P)+-dependent succinate semialdehyde dehydrogenase, SSADH) (Escherichia coli K-12; Q262R) (protein)
chain: B2 chain with Q262R
notes: dimeric on size exclusion
Km (purified protein [7]; 1 mM NAD+): 5 ± 1 µM | kcat (purified protein [7]; 1 mM NAD+): 87 ± 4 s⁻¹ | kcat/Km (purified protein [7]; 1 mM NAD+): 1.9e+07 M⁻¹ s⁻¹ | Km (purified protein [8]): 28 ± 4 µM | kcat (purified protein [8]): 3 ± 0.1 s⁻¹ | kcat/Km (purified protein [8]): 110000 M⁻¹ s⁻¹ | Km (purified protein [9]): 67 ± 9 µM | kcat (purified protein [9]): 19 ± 1 s⁻¹ | kcat/Km (purified protein [9]): 280000 M⁻¹ s⁻¹

B4: NAD(P)+-dependent succinate semialdehyde dehydrogenase of Escherichia coli (Sad), wild type (enzyme)
chain: B2 chain
notes: Succinate semialdehyde dehydrogenase Sad, E. coli; also called Sad WT; SSADH; source: E. coli BL21(DE3), purified (HisTrap, Superdex 200)
binding result [10]: binds

B5: Succinate semialdehyde dehydrogenase Sad, Q262R variant (enzyme, Escherichia coli)
chain: B2 chain with Q262R
notes: Succinate semialdehyde dehydrogenase Sad, E. coli, with Q262R (arose in adaptive laboratory evolution); also called Q262R mutant; source: E. coli BL21(DE3), purified (HisTrap, Superdex 200)
binding result [10]: binds
